# T1: Swi3 (S. cerevisiae, UniProt P32591 1-825)
# T1 sequence: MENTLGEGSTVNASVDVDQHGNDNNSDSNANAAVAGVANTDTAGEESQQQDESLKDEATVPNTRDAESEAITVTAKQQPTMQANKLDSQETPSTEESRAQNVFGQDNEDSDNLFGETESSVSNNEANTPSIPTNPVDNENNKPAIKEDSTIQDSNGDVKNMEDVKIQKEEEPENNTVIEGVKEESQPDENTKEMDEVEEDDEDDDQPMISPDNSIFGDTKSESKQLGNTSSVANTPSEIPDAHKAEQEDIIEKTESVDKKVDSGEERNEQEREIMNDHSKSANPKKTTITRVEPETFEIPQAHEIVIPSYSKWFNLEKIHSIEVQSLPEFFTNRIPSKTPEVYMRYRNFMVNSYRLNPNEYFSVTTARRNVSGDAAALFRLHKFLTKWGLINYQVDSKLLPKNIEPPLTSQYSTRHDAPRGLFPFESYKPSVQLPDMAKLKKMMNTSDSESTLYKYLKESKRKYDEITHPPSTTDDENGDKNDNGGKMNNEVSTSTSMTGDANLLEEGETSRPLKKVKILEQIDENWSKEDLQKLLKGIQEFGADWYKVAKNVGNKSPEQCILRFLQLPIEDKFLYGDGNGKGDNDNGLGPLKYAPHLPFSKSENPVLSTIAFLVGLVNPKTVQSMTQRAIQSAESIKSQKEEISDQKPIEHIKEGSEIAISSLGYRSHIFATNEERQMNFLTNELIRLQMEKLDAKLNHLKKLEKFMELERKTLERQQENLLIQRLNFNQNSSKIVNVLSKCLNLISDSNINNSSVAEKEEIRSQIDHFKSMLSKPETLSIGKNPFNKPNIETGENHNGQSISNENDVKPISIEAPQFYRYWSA
# B1: Arp7 (natural protein)
# chain: MTLNRKCVVIHNGSHRTVAGFSNVELPQCIIPSSYIKRTDEGGEAEFIFGTYNMIDAAAEKRNGDEVYTLVDSQGLPYNWDALEMQWRYLYDTQLKVSPEELPLVITMPATNGKPDMAILERYYELAFDKLNVPVFQIVIEPLAIALSMGKSSAFVIDIGASGCNVTPIIDGIVVKNAVVRSKFGGDFLDFQVHERLAPLIKEENDMENMADEQKRSTDVWYEASTWIQQFKSTMLQVSEKDLFELERYYKEQADIYAKQQEQLKQMDQQLQYTALTGSPNNPLVQKKNFLFKPLNKTLTLDLKECYQFAEYLFKPQLISDKFSPEDGLGPLMAKSVKKAGASINSMKANTSTNPNGLGTSHINTNVGDNNSTASSSNISPEQVYSLLLTNVIITGSTSLIEGMEQRIIKELSIRFPQYKLTTFANQVMMDRKIQGWLGALTMANLPSWSLGKWYSKEDYETLKRDRKQSQATNATN
# B2: Snf5 (natural protein)
# chain: MNNQPQGTNSVPNSIGNIFSNIGTPSFNMAQIPQQLYQSLTPQQLQMIQQRHQQLLRSRLQQQQQQQQQTSPPPQTHQSPPPPPQQSQPIANQSATSTPPPPPAPHNLHPQIGQVPLAPAPINLPPQIAQLPLATQQQVLNKLRQQAIAKNNPQVVNAITVAQQQVQRQIEQQKGQQTAQTQLEQQRQLLVQQQQQQQLRNQIQRQQQQQFRHHVQIQQQQQKQQQQQQQHQQQQQQQQQQQQQQQQQQQQQQQQQQQQQQQQQQQQQGQIPQSQQVPQVRSMSGQPPTNVQPTIGQLPQLPKLNLPKYQTIQYDPPETKLPYPTYWSDKKADTDTLLYEQIIQRDKINKYSLIRETNGYDPFSIYGFSNKEYISRLWHTLKYYQDLKNTRMKSITSTSQKIPSASIWGNGYSGYGNGITNTTTRVIPQVEVGNRKHYLEDKLKVYKQAMNETSEQLVPIRLEFDQDRDRFFLRDTLLWNKNDKLIKIEDFVDDMLRDYRFEDATREQHIDTICQSIQEQIQEFQGNPYIELNQDRLGGDDLRIRIKLDIVVGQNQLIDQFEWDISNSDNCPEEFAESMCQELELPGEFVTAIAHSIREQVHMYHKSLALLGYNFDGSAIEDDDIRSRMLPTITLDDVYRPAAESKIFTPNLLQISAAELERLDKDKDRDTRRKRRQGRSNRRGMLALSGTSASNTSMNGVHNTVAAGNASSLPPGEILLPDIADIPRTFRTPVPSTLMPGGVDVGPSVESYELRNTTTYKSRPDRPKPVSPPCYIIDHIPGHSLLLSIKLPGKVNTKEEFAAAPNDTSSGTNAMLPSPESLKTKLNSNIRAGVTIPSIPNPIANHTVTNSPNPTLQPVIPGGAASKSVPTPSLPIAPPVAPHDSEATLLTNSNNGSSNNNTQNT
# B3: Rtt102 (natural protein)
# chain: MDPQTLITKANKVSYYGNPTSKESWRYDWYQPSKVSSNVQQPQQQLGDMENNLEKYPFRYKTWLRNQEDEKNLQRESCEDILDLKEFDRRILKKSLMTSHTKGDTSKATGAPSANQGDEALSVDDIRGAVGNSEAIPGLSAGVNNDNTKESKDVKMN
# B4: Snf12 (natural protein)
# chain: MSKVMKPSNGKGSRKSSKAATPDTKNFFHAKKKDPVNQDKANNASQITPTVPHSHPSDMVIPDHLAELIPELYSFQQLVDSEKRLDHFIHLRNLHMKRMVAQWERSKLSQEFLYPHLNFPNVKFLRIFISNVSENQPWQMDTNNEADLMALENATWTMRIEGRLLDNVQANDPAREKFSSFIESIVVDFKNKENDNVPSTKFNAAPEENATEGPSDKKLNLNLPLQFSLPNGDNSTTTNTDQNNATMGEETAKKDMSSTTPKLESVKWQYDPNNPVDFDGLDIKRVGSENVECTISILRKSSPEEPFMSYSPQLTAIIGLKSGTSHDAIFSIYKYIHLNELLTNDESAFENLMGNRNNHNSNTSTSKMLDAASSQVSIVKLDTQLITLLPSSLKESSPDTMKLTDLLSLINSTHLLPLQPIEIDYTVRVDKASTYGELVLDIEVPDVNALKFNNTQRESQIGAAELNENARELEQIKPKIALQDKEITSVLSNLHESNKRYRFFKKISEDPVKALNECIASTSNALKVLSGDEGYNEDMVRRANFYKENEAMLRENIEVILSNGRM
# B5: Swi1 (natural protein)
# chain: MDFFNLNNNNNNNNTTTTTTTTNNNNTNNNNTNNNNNPANNTNNNNSTGHSSNTNNNTNNNNTNTGASGVDDFQNFFDPKPFDQNLDSNNNNSNSNNNDNNNSNTVASSTNFTSPTAVVNNAAPANVTGGKAANFIQNQSPQFNSPYDSNNSNTNLNSLSPQAILAKNSIIDSSNLPLQAQQQLYGGNNNNNSTGIANDNVITPHFITNVQSISQNSSSSTPNTNSNSTPNANQQFLPFNNSASNNGNLTSNQLISNYAASNSMDRSSSASNEFVPNTSDNNNNSNNHNMRNNSNNKTSNNNNVTAVPAATPANTNNSTSNANTVFSERAAMFAALQQKQQQRFQALQQQQQQQQNQQQQNQQPQQQQQQQQNPKFLQSQRQQQQRSILQSLNPALQEKISTELNNKQYELFMKSLIENCKKRNMPLQSIPEIGNRKINLFYLYMLVQKFGGADQVTRTQQWSMVAQRLQISDYQQLESIYFRILLPYERHMISQEGIKETQAKRIFLQQFLQELLKKVQQQQQAAALANANNNINSASSAPTPAAPGASVPATAAPGTEAGIVPVSANTPKSLNSNININVNNNNIGQQQVKKPRKQRVKKKTKKELELERKEREDFQKRQQKLLEDQQRQQKLLLETKLRQQYEIELKKLPKVYKRSIVRNYKPLINRLKHYNGYDINYISKIGEKIDSNKPIFLFAPELGAINLHALSMSLQSKNLGEINTALNTLLVTSADSNLKISLVKYPELLDSLAILGMNLLSNLSQNVVPYHRNTSDYYYEDAGSNQYYVTQHDKMVDKIFEKVNNNATLTPNDSNDEKVTILVDSLTGNQLPTPTPTEMEPDLDTECFISMQSTSPAVKQWDLLPEPIRFLPNQFPLKIHRTPYLTSLKKIKDEIDDPFTKINTRGAEDPKVLINDQLSTISMILRNISFSDNNSRIMSRNFYLKRFISDLLWLVLIHPENFTCNRKILNFKKDLVIVLSNISHLLEIASSIDCLLILILVISFGQPKLNPMASSSSFGSESLTFNEFQLQWGKYQTFGVDILAKLFSLEKPNLNYFKSILLNKNTGNNLYDRNSNNNHKDKKLLRRLLNLYNDNNKNNNNRHNLLNDVVSFLFSAIPLQQVLSQSADPSLLIDQFSPVISQSLTSILVIVQKILPLSNEVFEISENNSDSNSNNNGNKDSSFNFNKNLPFVWLSSEENIGSGLLKLSEIILNINNSTSKNTLLQQQNYSKVLLPSINISCVQLIKCLVEKSICFENCLNNDPEILKKIASIPNLFPTDLEIFQLFTNPSVDIQIINQYQLLYNLKNDILTNLE
# B6: Arp9 (natural protein)
# chain: MAPFRQDSILIIYPRSQTTLVQFGLNEETFTVPELEIPTQIYRTTRQDGSYTYHSTNKDNKAELIKPIQNGEIIDISAFTQFLRLIFVSILSDRANKNQDAFEAELSNIPLLLITHHSWSQSDLEIITQYVFESLEINNLIQLPASLAATYSMISLQNCCIIDVGTHHTDIIPIVDYAQLDHLVSSIPMGGQSINDSLKKLLPQWDDDQIESLKKSPIFEVLSDDAKKLSSFDFGNENEDEDEGTLNVAEIITSGRDTREVLEERERGQKVKNVKNSDLEFNTFWDEKGNEIKVGKQRFQGCNNLIKNISNRVGLTLDNIDDINKAKAVWENIIIVGGTTSISGFKEALLGQLLKDHLIIEPEEEKSKREEEAKSVLPAATKKKSKFMTNSTAFVPTIEYVQCPTVIKLAKYPDYFPEWKKSGYSEIIFLGAQIVSKQIFTHPKDTFYITREKYNMKGPAALWDVQF
# Tests used:
# Test in all cases: cryo-EM structure
# Snf2 = Snf2 (S. cerevisiae, UniProt P22082 1-1703)
# Swi1 = target: B5
# Swi3 = target: T1, Swi3
# Snf2, sequence (P22082 whole entry): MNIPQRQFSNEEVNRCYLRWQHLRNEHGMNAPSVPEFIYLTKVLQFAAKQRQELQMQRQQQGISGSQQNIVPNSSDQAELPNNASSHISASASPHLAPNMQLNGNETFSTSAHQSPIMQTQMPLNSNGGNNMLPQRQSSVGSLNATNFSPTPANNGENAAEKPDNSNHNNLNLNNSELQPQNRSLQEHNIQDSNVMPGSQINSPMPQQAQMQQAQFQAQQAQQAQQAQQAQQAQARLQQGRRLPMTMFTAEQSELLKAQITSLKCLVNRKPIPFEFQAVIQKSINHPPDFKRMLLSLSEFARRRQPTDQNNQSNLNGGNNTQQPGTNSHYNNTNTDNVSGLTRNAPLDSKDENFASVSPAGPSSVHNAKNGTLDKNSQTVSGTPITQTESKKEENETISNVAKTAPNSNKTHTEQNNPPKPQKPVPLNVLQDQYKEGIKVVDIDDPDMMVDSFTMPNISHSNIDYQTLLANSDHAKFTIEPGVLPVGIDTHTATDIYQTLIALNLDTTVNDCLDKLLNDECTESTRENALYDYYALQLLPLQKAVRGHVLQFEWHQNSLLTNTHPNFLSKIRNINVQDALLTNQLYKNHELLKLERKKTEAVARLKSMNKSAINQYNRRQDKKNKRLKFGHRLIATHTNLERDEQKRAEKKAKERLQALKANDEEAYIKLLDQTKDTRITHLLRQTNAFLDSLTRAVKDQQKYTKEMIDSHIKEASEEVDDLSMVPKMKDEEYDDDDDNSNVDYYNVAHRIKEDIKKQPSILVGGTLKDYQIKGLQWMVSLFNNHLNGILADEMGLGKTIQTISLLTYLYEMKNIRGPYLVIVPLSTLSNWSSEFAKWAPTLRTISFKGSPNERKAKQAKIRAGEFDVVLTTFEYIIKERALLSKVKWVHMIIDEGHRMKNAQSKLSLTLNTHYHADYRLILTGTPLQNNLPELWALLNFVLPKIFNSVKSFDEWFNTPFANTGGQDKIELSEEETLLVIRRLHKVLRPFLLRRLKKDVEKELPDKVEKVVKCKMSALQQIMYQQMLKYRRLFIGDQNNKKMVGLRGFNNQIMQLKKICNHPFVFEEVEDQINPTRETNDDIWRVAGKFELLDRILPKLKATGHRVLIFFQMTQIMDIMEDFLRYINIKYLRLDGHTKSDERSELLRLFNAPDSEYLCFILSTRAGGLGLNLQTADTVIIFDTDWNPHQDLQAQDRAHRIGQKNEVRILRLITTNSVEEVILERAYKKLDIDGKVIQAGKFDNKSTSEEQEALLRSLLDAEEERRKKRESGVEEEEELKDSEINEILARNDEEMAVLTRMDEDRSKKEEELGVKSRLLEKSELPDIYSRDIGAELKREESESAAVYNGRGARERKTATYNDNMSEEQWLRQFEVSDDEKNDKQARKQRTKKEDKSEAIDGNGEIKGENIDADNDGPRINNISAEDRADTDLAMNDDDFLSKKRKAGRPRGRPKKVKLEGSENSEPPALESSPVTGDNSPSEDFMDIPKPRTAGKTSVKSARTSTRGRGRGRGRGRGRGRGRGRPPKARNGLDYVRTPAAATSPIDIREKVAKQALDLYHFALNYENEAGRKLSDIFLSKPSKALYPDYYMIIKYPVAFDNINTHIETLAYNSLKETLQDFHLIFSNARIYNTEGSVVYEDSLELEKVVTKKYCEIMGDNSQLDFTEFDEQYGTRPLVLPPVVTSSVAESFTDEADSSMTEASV
Binder,binding result (Snf2),binding result (Swi1),binding result (Swi3)
B1,binds,–,–
B2,–,binds,–
B3,binds,–,–
B4,–,binds,binds
B5,binds,–,–
B6,binds,–,–
